Assay results from the supplement of paper PMC7877785.
± gives the uncertainty stated by the source.

Experiment: self-splicing fitness, log relative to wild type (ln ratio); higher = more splicing; Tetrahymena group I intron in knt gene, E. coli kanamycin selection, DiMSum; sequences stand for … in CUCUCU…GGAGGGAAAAGUUAUCAGGCAUGCACCUGGUAGCUAGUCUUUAAACCAAUAGAUUGCAUCGGUUUAAAAGGCAAGACCGUCAAAUUGCGGGAAAGGGGUCAACAGCCGUUCAGUACCAAGUCUCAGGGGAAACUUUGAGAUGGCCUUGCAAAGGGUAUGGUAAUAAGCUGACGGACAUGGUCCUAACCACGCAGCCAAGUCCUAAGUCAACAGAUCUUCUGUUGAUAUGGAUGCAGUUCACAGACUAAAUGUCGGUCGGGGAAGAUGUAUUCUUCUCAUAAGAUAUAGUCGGACCUCUCCUUAAUGGGAGCUAGCGGAUGAAGUGAUGCAACACUGGAGCCGCUGGGAACUAAUUUGUAUGCGAAAGUAUAUUGAUUAGUUUUGGAGUACUCGUGGUCG
Method in brief: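 The eight P1ex-region nucleotides of an intron in the knt kanamycin-resistance gene on pET-22b(+) were all randomised and the library put into E. coli BL21(DE3). Six replicate transformations were grown overnight at 37°C or 30°C on LB agar with or without 25 μg/mL kanamycin, together with 100 μg/mL carbenicillin, 50 μM IPTG and 0.2% rhamnose. Colonies were pooled and amplicon-sequenced on an Illumina HiSeq 2500. Fitness from DiMSum is the error-weighted combination of wild-type-normalised replicate fold changes, kanamycin over none.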

Sequence	self-splicing fitness (ln) (30 °C)	self-splicing fitness (ln) (37 °C)
UGAGAGCAAUAUUACGAUCG	-2.1 ± 0.13	-2.12 ± 0.17
UGAGAGCAAUAUUACGCAUU	-3.34 ± 0.38	
UGAGAGCAAUAUUACGCCAA		-1.98 ± 0.37
UGAGAGCAAUAUUACGCCGG	-3.37 ± 0.47	
UGAGAGCAAUAUUACGCCUA	-1.58 ± 0.22	-0.073 ± 0.21
UGAGAGCAAUAUUACGCCUG	-2.46 ± 0.21	-1.91 ± 0.32
UGAGAGCAAUAUUACGCGCG	-2.15 ± 0.2	-1.23 ± 0.24
UGAGAGCAAUAUUACGCGGC	-3.04 ± 0.46	-1.58 ± 0.44
UGAGAGCAAUAUUACGCUAG	-3.66 ± 0.47	
UGAGAGCAAUAUUACGCUAU	-3.09 ± 0.35	-1.48 ± 0.46
UGAGAGCAAUAUUACGGCCG	-3.57 ± 0.43	-1.38 ± 0.25
UGAGAGCAAUAUUACGGCGG	-3.73 ± 0.35	-1.9 ± 0.3
UGAGAGCAAUAUUACGGUAA	-4.27 ± 0.25	-2.27 ± 0.23
UGAGAGCAAUAUUACGGUAC		-2 ± 0.38
UGAGAGCAAUAUUACGGUAU	-3.07 ± 0.2	-1.53 ± 0.3
UGAGAGCAAUAUUACGUACA	-2.02 ± 0.21	-0.955 ± 0.26
UGAGAGCAAUAUUACGUCUA	-1.4 ± 0.11	-0.679 ± 0.12
UGAUAGCAAUAUUACGAAUG	-1.19 ± 0.12	-1.14 ± 0.16
UGAUAGCAAUAUUACGACCG	0.139 ± 0.13	0.451 ± 0.17
UGAUAGCAAUAUUACGACCU	-1.09 ± 0.17	-0.0258 ± 0.18
UGAUAGCAAUAUUACGAGAC		-2.59 ± 0.34

Sequence	self-splicing fitness (ln) (30 °C)	self-splicing fitness (ln) (37 °C)
UGAUAGCAAUAUUACGAGUA	-1.71 ± 0.16	-1.23 ± 0.13
UGAUAGCAAUAUUACGAUCG	-0.236 ± 0.14	-0.942 ± 0.15
UGAUAGCAAUAUUACGAUUA	-0.749 ± 0.11	-0.000856 ± 0.1
UGAUAGCAAUAUUACGCCCA	0.955 ± 0.13	-0.0259 ± 0.17
UGAUAGCAAUAUUACGCGCG	-0.57 ± 0.086	-0.283 ± 0.12
UGAUAGCAAUAUUACGCGGU	-3.34 ± 0.27	-1.99 ± 0.22
UGAUAGCAAUAUUACGCUGA	-1.79 ± 0.2	-0.53 ± 0.12
UGAUAGCAAUAUUACGGCAU	-2.68 ± 0.13	-1.41 ± 0.13
UGAUAGCAAUAUUACGGCGG	-0.138 ± 0.095	-0.142 ± 0.13
UGAUAGCAAUAUUACGGUGC	-2.98 ± 0.35	
UGAUAGCAAUAUUACGUAGG	-1.66 ± 0.16	-0.583 ± 0.16
UGAUAGCAAUAUUACGUAUC	-2.67 ± 0.48	
UGAUAGCAAUAUUACGUCGA	-1.69 ± 0.11	-0.847 ± 0.1
UGAUAGCAAUAUUACGUCUG	-0.116 ± 0.085	0.318 ± 0.1
UGAUAGCAAUAUUACGUGUG	-1.45 ± 0.1	-0.804 ± 0.098
UGAUAGCAAUAUUACGUUUC	-2.72 ± 0.22	-2.29 ± 0.41
UGCAAGCAAUAUUACGAAUG	-1.35 ± 0.085	-0.724 ± 0.12
UGCAAGCAAUAUUACGACUG	0.127 ± 0.065	0.37 ± 0.087
UGCAAGCAAUAUUACGAUGG	-1.25 ± 0.1	-0.29 ± 0.12
UGCAAGCAAUAUUACGCAAA	-2.5 ± 0.17	-2 ± 0.15
